The labels stand for the following.
B1: myc/His-tagged NPTX1 (pcDNA3.1-NPTX1-myc/His) (ligand)
chain: QDFGPTRFICTSVPVDADMCAASVAAGGAEELRSSVLQLRETVLQQKETILSQKETIRELTAKLGRCESQSTLDPGAGEARAGGGRKQPGSGKNTMGDLSRTPAAETLSQLGQTLQSLKTRLENLEQYSRLNSSSQTNSLKDLLQSKIDELERQVLSRVNTLEEGKGGPRNDTEERVKIETALTSLHQRISELEKGQKDNRPGDKFQLTFPLRTNYMYAKVKKSLPEMYAFTVCMWLKSSATPGVGTPFSYAVPGQANELVLIEWGNNPMEILINDKVAKLPFVINDGKWHHICVTWTTRDGVWEAYQDGTQGGSGENLAPYHPIKPQGVLVLGQEQDTLGGGFDATQAFVGELAHFNIWDRKLTPGEVYNLATCSTKALSGNVIAWAESHIEIYGGATKWTFEACRQIN
notes: also called c-myc-tagged NPTX1; exogenous NPTX1; not shown: myc-His tag of the pcDNA3.1 myc-His vector
B2: EF-1delta161-281 (FLAG-HA-tagged deletion construct) (other, not shown: small tags and cut ends)
chain: GSDNEEEDKEAAQLREERLRQYAEKKAKKPALVAKSSILLDVKPWDDETDMAQLEACVRSIQLDGLVWGASKLVPVGYGIRKLQIQCVVEDDKVGTDLLEEEITKFEEHVQSVDIAAFNKI
notes: Lacks the N-terminal 160 amino acids of EF-1delta; also called EF-1delta 161-281 construct
B3: cyclin-dependent kinase inhibitor 3 (CDKN3), endogenous in LC319 cells (enzyme)
chain: MKPPSSIQTSEFDSSDEEPIEDEQTPIHISWLSLSRVNCSQFLGLCALPGCKFKDVRRNVQKDTEELKSCGIQDIFVFCTRGELSKYRVPNLLDLYQQCGIITHHHPIADGGTPDIASCCEIMEELTTCLKNYRKTLIHCYGGLGRSCLVAACLLLYLSDTISPEQAIDSLRDLRGSGAIQTIKQYNYLHEFRDKLAAHLSSRDSQSRSVSR
notes: Endogenous protein in extracts of the human lung cancer cell line LC319; also called KAP; KAP1

For test [1], the target named is T1, neuronal pentraxin receptor (NPTXR), endogenous on SBC-5 lung cancer cells (human, UniProt O95502 1-500).
T1 construct: Endogenous NPTXR of the human SCLC cell line SBC-5
T1 sequence: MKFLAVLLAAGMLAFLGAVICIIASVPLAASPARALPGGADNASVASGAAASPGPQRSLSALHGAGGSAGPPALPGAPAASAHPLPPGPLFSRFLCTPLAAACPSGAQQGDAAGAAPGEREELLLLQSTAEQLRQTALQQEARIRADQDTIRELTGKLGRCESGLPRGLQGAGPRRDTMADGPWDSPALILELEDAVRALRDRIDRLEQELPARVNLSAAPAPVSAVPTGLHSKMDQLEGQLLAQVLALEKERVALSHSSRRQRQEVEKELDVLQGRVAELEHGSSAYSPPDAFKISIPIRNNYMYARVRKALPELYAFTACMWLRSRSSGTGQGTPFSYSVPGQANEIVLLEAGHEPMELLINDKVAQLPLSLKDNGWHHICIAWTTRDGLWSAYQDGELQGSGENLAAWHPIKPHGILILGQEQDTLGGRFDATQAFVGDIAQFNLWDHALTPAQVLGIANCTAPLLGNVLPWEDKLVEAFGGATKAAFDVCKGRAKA
Put plainly: immunocytochemistry of recipient SBC-5 cells incubated 3 hours with conditioned medium of NPTX1-transfected donor cells. On the procedure:
FIG. 14: Presents internalization of NPTX1 after binding with NPTXR Part A, B, Recipient COS-7 cells (A) or SBC-5 cells (B) were incubated with conditioned medium from NPTX1-transfected (+) donor COS-7 cells or SBC-5 cells, respectively. c-myc-tagged NPTX1 was detected 3 hours after treatment of recipient cells with donor's conditioned medium. Green: NPTX1. Nuclei were visualized by DAPI. (a) Cells were stained for extracellular surface staining with anti-myc antibody for detecting NPTX1. (b) Cells were permialized by Triton X-100 and stained for NPTX1 (myc). (c) 3 hours treatment with PBS. […] 1 or 3 hours after treatment of recipient COS-7 cells with conditioned medium from donor NPTX1-transfected (+) COS-7 cells, internalized NPTX1 was detected by western blotting using anti-myc antibodies.
To determine the mechanism involved in the regulation of NPTX1/NPTXR signaling, the present inventors examined whether NPTX1/NPTXR could be internalized when cells were exposed to secreted NPTX1, through confocal microscopy observation of the subcellular distribution of the NPTX1 and NPTXR. […] The present Mentors detected binding of NPTX1 to the surface of these cells by immunocytochemistry (FIGS. 14A and 14B). […] Then, immunocytochemistry was done under membrane-permeabilizing conditions and we detected internalized exogenous NPTX1 (FIGS. 14A and 14B). […]

For test [2], the system named is COS-7 cells. As to the kind of experiment: Autocrine assay: COS-7 cells incubated with recombinant NPTX1 protein, MTT. As to conditions: NPTX1 at final concentration of 0.1 nM to 1 nM, compared with control. It counts as cell-based. The text has this: FIG. 10. Presents the autocrine cellular growth effect of NPTX1. Part A depicts the inhibition of growth of lung cancer cells by siRNA against NPTX1. The upper panels of Part A depict the expression of NPTX1 in response to si-NPTX1s (si-1, -2) or control siRNAs (LUC or SCR) in A549 and SBC-5 cells, analyzed by RT-PCR analysis. The middle panels of Part A present images of colonies examined by colony-formation assays of the A549 and SBC-5 cells transfected with specific siRNAs for NPTX1 or control plasmids. The bottom panels of Part A present the viability of the A549 or SBC-5 cells evaluated by MTT assay in response to si-NPTX1s, -LUC, or -SCR. All assays were performed three times, and in triplicate wells. Part B presents growth-promoting effect of NPTX1 transiently overexpressed in COS-7 cells. Top panel, Transient expression of NPTX1 in COS-7 cells, detected by Western blot analysis. The bottom panels, Viability of the COS-7 cells evaluated by MTT (left) and colony formation assays (right). C, Left panel, Autocrine/paracrine effect of NPTX1 on the growth of mammalian cells. Cell viability counted by MTT assays (COS-7 cells treated with NPTX1 in final concentrations of 0, 0.1, or 1 nM) (right lanes indicated by PBS). […]

Test [3] deals with B3. As to the kind of experiment: co-immunoprecipitation with monoclonal anti-Flag antibody from LC319 cells. The text has this:
The biological importance of the association of these two proteins and its potential as a therapeutic target for lung cancer was subsequently investigated. To determine the domain in EF-1delta that is required for interaction with CDKN3, each construct of EF-1delta with FLAG-HA-sequence at its N- and C-terminals were transfected into LC319 cells (EF-1delta72-160, EF-1delta161-281, EF-1delta1-160, EF-1delta72-281, and full-length EF-1delta1-281; FIG. 21B).

For test [4], the target named is T2, eukaryotic translation elongation factor 1 delta (EF-1delta), endogenous (human, UniProt P29692 2-281).
T2 construct: Endogenous 31-kDa protein of LC319 cells
T2 sequence: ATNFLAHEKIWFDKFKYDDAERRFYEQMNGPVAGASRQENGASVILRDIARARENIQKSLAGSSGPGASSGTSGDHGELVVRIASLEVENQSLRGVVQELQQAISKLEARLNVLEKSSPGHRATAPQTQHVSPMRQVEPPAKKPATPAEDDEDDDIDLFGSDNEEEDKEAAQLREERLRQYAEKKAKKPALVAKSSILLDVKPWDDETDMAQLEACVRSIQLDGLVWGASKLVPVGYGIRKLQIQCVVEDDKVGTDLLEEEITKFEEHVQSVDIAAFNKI
As to the kind of experiment: co-immunoprecipitation with anti-CDKN3 monoclonal antibody from LC319 extracts, silver stain, MALDI-TOF-MS. On the procedure: Cell extracts from lung-cancer cell line LC319 were pre-cleared by incubation at 4 degree Centigrade for 1 hour with 100 micro L of protein G-agarose beads in a final volume of 2 ml of immunoprecipitation buffer [0.5% NP-40, 50 mM Tris-HCl, 150 mM NaCl] in the presence of protease inhibitor. After centrifugation at 1000 rpm for 5 min at 4 degree Centigrade, the supernatant was incubated at 4 degree Centigrade with anti-CDKN3 monoclonal antibody or normal mouse IgG, for 2 hours. The beads were then collected by centrifugation at 5000 rpm for 2 min and washed six times with 1 ml of each immunoprecipitation buffer. The washed beads were resuspended in 50 micro L of Laemmli sample buffer and boiled for 5 min, and the proteins were separated by 5-10% SDS PAGE gels (BIO RAD). After electrophoresis, the gels were stained with silver. Protein bands specifically found in extracts immunoprecipitated with anti-CDKN3 monoclonal antibody were excised and served for matrix-assisted laser desorption/ionization-time of flight mass spectrometry (MALDI-TOF-MS) analysis (AXIMA-CFR plus, SHIMADZU BIOTECH).

For the molecule B1, the binding result in test [1] is reported as “binds”. For the same molecule, the “COS-7 cell growth by MTT assays” value in test [2] was “enhancement of the cell growth”.
For B2, in test [3], the binding result is on record as “no binding”.
As for B3, in test [4], the binding result was “binds”.

For the origin of these results see US20110152345A1, “EBI3, DLX5, NPTX1 AND CDKN3 FOR TARGET GENES OF LUNG CANCER THERAPY AND DIAGNOSIS” (Oncotherapy Science, Inc., priority 2007, published 2011).
